This passage reports self-cleavage results from the RNAGym collection of RNA variant scans (doi:10.7554/elife.80360).

B1: Hairpin Ribozyme (parent)
chain: GUCCUCUUUCACGUGCGCGUGAAAGAGAGAAGUGAACCAGAGAAACACACGUUGUGGUAUAUUACCUGGUA

Variants of B1 are the subject of this data set. Briefly: self-cleavage, relative activity (ratio to wild type); higher = more cleavage; co-transcriptional.
As to A30U A31C, the self-cleavage came out at 0.288. In the case of G29U A49C it was 0.14.

For the variant G29U A49G, the self-cleavage was 0.173. The figure for G29C G68U is 0.125; for A28U U60A it is 0.493. The figure for A28G G40A is 0.426; for A30C U58G it is 0.103; for A30C U58A it is 0.134. The figure for A30U G32C is 0.132. For G29C A30G, the self-cleavage worked out at 0.218. The figure for G29C A30U is 0.0915.

Turning to A28U U55C, the self-cleavage amounted to 0.161. The figure for A28U U55G is 0.159; for G29C A45G it is 0.106.

In the case of G29C A45U, the self-cleavage was 0.122. Consider G29C A59C, for which the self-cleavage worked out at 0.205. In the case of G29C A59G it was 0.0639.

As to A30G U58C, the self-cleavage is 0.0836. The figure for A30C U53C is 0.203; for A30C U53G it is 0.284; for A28G A64C it is 0.165. The figure for A28G A64U is 0.159; for A30U G57C it is 0.0918; for G29U U60G it is 0.17. The figure for A30U A49C is 0.111. G29C U33A: the self-cleavage turned out to be 0.0541. Take A28G U55A: the self-cleavage was 0.208. In the case of A28G U55C it was 0.53. The figure for G29C U63G is 0.0807; for G29C A64C it is 0.133. In the case of G29C A64G it was 0.124; in that of G29U A36C, 0.101; in that of G29U A36G, 0.275.

As for G29U A39U, the self-cleavage worked out at 0.0632.

For G29U A39G, the self-cleavage was determined as 0.0986. The figure for A30G C46U is 0.236. As to A30C U70G, the self-cleavage came out at 0.0924. The figure for A28G C50U is 0.439; for A28G C50G it is 0.467. The figure for A28U A39C is 0.337; for G29A G42A it is 0.139. The figure for A28G U33C is 0.155.

Turning to A28U U53A, the self-cleavage worked out at 0.845. A28G A36G: the self-cleavage worked out at 1.16. In the case of A30U U67C it was 0.0825; in that of A30U U67G, 0.176.

As for A30U U67A, the self-cleavage was 0.0771. In the case of G29C A44C it was 0.126; in that of A28U G56C, 0.151; in that of A28U G56A, 0.174.

On to A28U G56U, for which the self-cleavage was found to be 0.0609.

As to A30C A31U, the self-cleavage came to 0.129.

On to A30C A43U, for which the self-cleavage came out at 0.128. In the case of A30C A41G it was 0; in that of A30C C46G, 0.0771. The figure for A30C C46A is 0.0713; for G29A U62G it is 0.21. On to A30U C48G, for which the self-cleavage is 0.118. The figure for A30U C48A is 0.209; for A30U U58A it is 0.115. In the case of A28U C66U it was 0.207; in that of A28U C66G, 0.302; in that of A28U A59C, 0.0961. The figure for A28U A59U is 0.185; for G29C A36G it is 0.18.

In the case of A30G G54C, the self-cleavage was 0.178. For A28G A59C, the self-cleavage is 0.114.

For the variant A28G A59G, the self-cleavage was determined as 0.181. The figure for G29A A47C is 0.107.

On to G29A A47U, for which the self-cleavage came to 0.107. The figure for A30G C65G is 0.204; for A30G C65A it is 0.148. Consider A30G C37A, for which the self-cleavage amounted to 0.192. In the case of G29U U70C it was 0.127; in that of A30U A64U, 0.13. The figure for G29A U63C is 0.0755; for A31C A49G it is 0.0512.

For A28U U58A, the self-cleavage came out at 0.36.

For the variant A28G G68C, the self-cleavage was 0.115.

Turning to G29C G69C, the self-cleavage came to 0.0776.

A28G A35G: the self-cleavage was 0.864. On to A28G A35C, for which the self-cleavage was determined as 1.27. In the case of G29U A44G it was 0.142; in that of A28U A45G, 0.121. The figure for G29C U62G is 0.18; for G29C U62A it is 0.13; for G29C U67A it is 0.179. G29U A45G: the self-cleavage was 0.136.

On to G29U G68U, for which the self-cleavage amounted to 0.176. The figure for G29C A35G is 0.178; for G29U U52G it is 0.0467. In the case of G29C A47G it was 0.0858; in that of G29C A47C, 0.15. As to A30U U70A, the self-cleavage turned out to be 0.0595. In the case of A30U U70C it was 0.123. In the case of G29U A64G, the self-cleavage came out at 0.0899.

On to G29U A31G, for which the self-cleavage was 0.167.

In the case of G29U A31C, the self-cleavage turned out to be 0.2.

Regarding G29U A31U, the self-cleavage was 0.151. The figure for G29U G69C is 0.0911.

As for G29U G69A, the self-cleavage was determined as 0.105. In the case of G29U U58G it was 0.168; in that of G29A G57C, 0.109; in that of A30G U53G, 0.157.

As for A30C C48U, the self-cleavage came out at 0.17. The figure for A30U G42A is 0.11; for A30G U62G it is 0.112. For G29U C50G, the self-cleavage came to 0.184. The figure for G29U C50A is 0.113. The figure for A28G A44G is 0.222. In the case of G29A U33A it was 0.203.

As for A28G U63G, the self-cleavage amounted to 0.223. A28G U63A: the self-cleavage turned out to be 0.141. As for A28G U63C, the self-cleavage stood at 0.138. In the case of A30C C66U it was 0.169; in that of G29U G32U, 0.164. The figure for G29U G32A is 0.169.

Regarding A28G G32C, the self-cleavage was determined as 0.119.

For A28G G69A, the self-cleavage turned out to be 0.48. In the case of A30C A45G, the self-cleavage was 0.194. On to A30C A45U, for which the self-cleavage was 0.0541. In the case of A28U A35U it was 0.505; in that of A28U A44U, 0.0894. For A28U G42A, the self-cleavage is 0.167. In the case of A30G A41G it was 0.112; in that of G29C C65A, 0.204; in that of G29C C65G, 0.209.

Take A30U A61C: the self-cleavage is 0.069. In the case of A30U A61U it was 0.0778; in that of A28U G57C, 0.113; in that of G29U U53C, 0.197. The figure for A31C A36C is 0.123; for A31C A36G it is 0.124. The figure for A28U C65G is 0.151. As to A28U C65U, the self-cleavage was found to be 0.153.

Regarding G29U G34C, the self-cleavage came out at 0.0691. In the case of G29A G40U it was 0.0938; in that of A30U A36U, 0.0371. As to G29U U33G, the self-cleavage worked out at 0.0639.

With G29A G68C, the self-cleavage came out at 0.143. In the case of G29A G68U it was 0.306; in that of G29A G68A, 0.125; in that of G29U C37G, 0.0458. In the case of G29A U52G it was 0.0639. For G29A U52A, the self-cleavage was determined as 0.115. The figure for A30U A71C is 0.299; for A30U A71U it is 0.101; for G29U A59U it is 0.104. The figure for G29U A59G is 0.0822; for A28G G54U it is 0.541; for A30G A59U it is 0.305. The figure for G29U C65U is 0.105; for G29C U70A it is 0.162.

For G29C U70G, the self-cleavage amounted to 0.119.

In the case of A30U A47C, the self-cleavage worked out at 0.0639. A30C U33C: the self-cleavage was 0.1. The figure for A30C U33G is 0.0878. In the case of A28G G42U it was 0.375. As for A28U C46A, the self-cleavage stood at 0.0952. Consider A30C A44C, for which the self-cleavage is 0.0571. In the case of A30U G40C it was 0.13; in that of A31C A59U, 0.108; in that of G29A U58G, 0.13. In the case of G29A U58C it was 0.202. In the case of A30G A61C it was 0.109; in that of G29U A43G, 0.134; in that of A28G G51U, 1.14.
